From patent US20110263454A1, “Methods of Identifying Functional Characteristics of Promoters, Transcription Modifying Proteins and Transcription Modulating Agents” (Salk Institute for Biological Studies, priority 2008, published 2011)

Experiments:
[1] = test system: mGhrelin promoter; assay: NHR-promoter luciferase screen, mGhrelin promoter; format: cell-based, mouse; details: for Luc. act., normalized to lacZ / Normalized Luc. act., normalized to control: Table 8, mGhrelin; for Results of assays of transcription factor (+/- ligand) with mGhrelin: Table 6d, luciferase activity relative to control (control = 1.00)
In short: (§1)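 CV-1 cells were co-transfected with 50 ng NHR (homodimer or NHR/RXR heterodimer), 100 ng promoter-luciferase construct and 50 ng LacZ. Luciferase was normalized to LacZ and to a no-NHR/no-ligand control.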

[2] = test system: mLeptin promoter; assay: NHR-promoter luciferase screen, mLeptin promoter; format: cell-based, mouse; details: for Luc. act., normalized to lacZ / Normalized Luc. act., normalized to control: Table 7, mLeptin; for Results of assays of transcription factor (+/- ligand) with mLeptin: Table 6d, luciferase activity relative to control (control = 1.00)
In short: as §1

[3] = test system: mPOMC promoter; assay: NHR-promoter luciferase screen, mPOMC promoter; format: cell-based, mouse; details: for Results of assays of transcription factor (+/- ligand) with mPOMC: Table 6d, luciferase activity relative to control (control = 1.00); for Luc. act., normalized to lacZ / Normalized Luc. act., normalized to control: mPOMC promoter, HR component with or without ligand; for Normalized Luc. act., normalized to control: relative to control
In short: as §1

[4] = test system: mUCP3 promoter; assay: NHR-promoter luciferase screen, mUCP3 promoter; format: cell-based, mouse; details: for Normalized Luc. act., normalized to control / Luc. act., normalized to lacZ: mUCP3 promoter reporter; for Normalized Luc. act., normalized to control: HR without or with its ligand, relative to control; for Luc. act., normalized to lacZ: hormone receptor (HR) without or with its ligand; for mUCP3 promoter reporter activity: transcription factor +/- ligand, control = 1.00
In short: as §1

[5] = test system: hIRF7 promoter; assay: NHR-promoter luciferase screen, hIRF7 promoter; format: cell-based, human; details: for Normalized Luc. act., normalized to control / Luc. act., normalized to lacZ: IRF7 promoter reporter; for Normalized Luc. act., normalized to control: HR without or with its ligand, relative to control; for Luc. act., normalized to lacZ: hormone receptor (HR) without or with its ligand; for hIRF7 promoter reporter activity: transcription factor +/- ligand, control = 1.00
In short: as §1

[6] = test system: hPPARg1 promoter; assay: NHR-promoter luciferase screen, hPPARg1 promoter; format: cell-based, human; details: for Luc. act., normalized to lacZ / Normalized Luc. act., normalized to control: PPARG1 promoter, hormone receptor with or without its ligand; for Normalized Luc. act., normalized to control: relative to control; for Results of assays of transcription factor (+/- ligand) with hPPARg1: Table 6d, luciferase activity relative to control (control = 1.00)
In short: as §1

B1: ERR2: Estrogen Related Receptor β (NR3B2, ERRb), cDNA driver (protein, UniProt O95718 1-433, looked up)
Steroid hormone receptor ERR2: MSSDDRHLGSSCGSFIKTEPSSPSSGIDALSHHSPSGSSDASGGFGLALGTHANGLDSPPMFAGAGLGGTPCRKSYEDCASGIMEDSAIKCEYMLNAIPKRLCLVCGDIASGYHYGVASCEACKAFFKRTIQGNIEYSCPATNECEITKRRRKSCQACRFMKCLKVGMLKEGVRLDRVRGGRQKYKRRLDSESSPYLSLQISPPAKKPLTKIVSYLLVAEPDKLYAMPPPGMPEGDIKALTTLCDLADRELVVIIGWAKHIPGFSSLSLGDQMSLLQSAWMEILILGIVYRSLPYDDKLVYAEDYIMDEEHSRLAGLLELYRAILQLVRRYKKLKVEKEEFVTLKALALANSDSMYIEDLEAVQKLQDLLHEALQDYELSQRHEEPWRTGKLLLTLPLLRQTAAKAVQHFYSVKLQGKVPMHKLFLEMLEAKV
[1]
  Luc. act., normalized to lacZ: 365.8
  Normalized Luc. act., normalized to control: 7.0
  Results of assays of transcription factor (+/- ligand) with mGhrelin: 7.00
[1]; mGhrelin promoter-luciferase, NHR +/- ligand, control = 1.0
  luciferase/LacZ, mGhrelin (selected results): 7.0
[2]
  Luc. act., normalized to lacZ: 9.7
  Normalized Luc. act., normalized to control: 3.3
  Results of assays of transcription factor (+/- ligand) with mLeptin: 3.30
[2]; mLeptin promoter-luciferase, NHR +/- ligand, control = 1.0
  luciferase/LacZ, mLeptin (selected results): 3.3
[3]
  Results of assays of transcription factor (+/- ligand) with mPOMC: 1.57
  Luc. act., normalized to lacZ: 108.6
  Normalized Luc. act., normalized to control: 1.6
[4]
  Normalized Luc. act., normalized to control: 3.3
  Luc. act., normalized to lacZ: 2.2
  mUCP3 promoter reporter activity: 3.32
[5]
  Normalized Luc. act., normalized to control: 2.3
  Luc. act., normalized to lacZ: 60.5
  hIRF7 promoter reporter activity: 2.30
[6]
  Luc. act., normalized to lacZ: 59.1
  Normalized Luc. act., normalized to control: 0.9
  Results of assays of transcription factor (+/- ligand) with hPPARg1: 0.86

B2: CTF2: COUP-TF2 (NR2F2), cDNA driver (protein, UniProt P24468 1-414, looked up)
COUP transcription factor 2: MAMVVSTWRDPQDEVPGSQGSQASQAPPVPGPPPGAPHTPQTPGQGGPASTPAQTAAGGQGGPGGPGSDKQQQQQHIECVVCGDKSSGKHYGQFTCEGCKSFFKRSVRRNLSYTCRANRNCPIDQHHRNQCQYCRLKKCLKVGMRREAVQRGRMPPTQPTHGQFALTNGDPLNCHSYLSGYISLLLRAEPYPTSRFGSQCMQPNNIMGIENICELAARMLFSAVEWARNIPFFPDLQITDQVALLRLTWSELFVLNAAQCSMPLHVAPLLAAAGLHASPMSADRVVAFMDHIRIFQEQVEKLKALHVDSAEYSCLKAIVLFTSDACGLSDVAHVESLQEKSQCALEEYVRSQYPNQPTRFGKLLLRLPSLRTVSSSVIEQLFFVRLVGKTPIETLIRDMLLSGSSFNWPYMAIQ
[1]
  Luc. act., normalized to lacZ: 173.3
  Normalized Luc. act., normalized to control: 3.3
  Results of assays of transcription factor (+/- ligand) with mGhrelin: 3.32
[2]
  Luc. act., normalized to lacZ: 3.8
  Normalized Luc. act., normalized to control: 1.3
  Results of assays of transcription factor (+/- ligand) with mLeptin: 1.31
[3]
  Results of assays of transcription factor (+/- ligand) with mPOMC: 0.94
  Luc. act., normalized to lacZ: 64.6
  Normalized Luc. act., normalized to control: 0.9
[4]
  Normalized Luc. act., normalized to control: 0.9
  Luc. act., normalized to lacZ: 0.6
  mUCP3 promoter reporter activity: 0.91
[5]
  Normalized Luc. act., normalized to control: 1.0
  Luc. act., normalized to lacZ: 25.6
  hIRF7 promoter reporter activity: 0.97
[6]
  Luc. act., normalized to lacZ: 43.9
  Normalized Luc. act., normalized to control: 0.6
  Results of assays of transcription factor (+/- ligand) with hPPARg1: 0.64

B3: ERR3: Estrogen Related Receptor γ (NR3B3, ERRg), cDNA driver (protein, UniProt P62508 1-458, looked up)
Estrogen-related receptor …: MDSVELCLPESFSLHYEEELLCRMSNKDRHIDSSCSSFIKTEPSSPASLTDSVNHHSPGGSSDASGSYSSTMNGHQNGLDSPPLYPSAPILGGSGPVRKLYDDCSSTIVEDPQTKCEYMLNSMPKRLCLVCGDIASGYHYGVASCEACKAFFKRTIQGNIEYSCPATNECEITKRRRKSCQACRFMKCLKVGMLKEGVRLDRVRGGRQKYKRRIDAENSPYLNPQLVQPAKKPYNKIVSHLLVAEPEKIYAMPDPTVPDSDIKALTTLCDLADRELVVIIGWAKHIPGFSTLSLADQMSLLQSAWMEILILGVVYRSLSFEDELVYADDYIMDEDQSKLAGLLDLNNAILQLVKKYKSMKLEKEEFVTLKAIALANSDSMHIEDVEAVQKLQDVLHEALQDYEAGQHMEDPRRAGKMLMTLPLLRQTSTKAVQHFYNIKLEGKVPMHKLFLEMLEAKV
[1]
  Luc. act., normalized to lacZ: 145.9
  Normalized Luc. act., normalized to control: 2.8
  Results of assays of transcription factor (+/- ligand) with mGhrelin: 2.79
[2]
  Luc. act., normalized to lacZ: 2.4
  Normalized Luc. act., normalized to control: 0.8
  Results of assays of transcription factor (+/- ligand) with mLeptin: 0.80
[3]
  Results of assays of transcription factor (+/- ligand) with mPOMC: 2.02
  Luc. act., normalized to lacZ: 139.4
  Normalized Luc. act., normalized to control: 2.0
[4]
  Normalized Luc. act., normalized to control: 3.1
  Luc. act., normalized to lacZ: 2.1
  mUCP3 promoter reporter activity: 3.06
[5]
  Normalized Luc. act., normalized to control: 2.1
  Luc. act., normalized to lacZ: 55.2
  hIRF7 promoter reporter activity: 2.10
[6]
  Luc. act., normalized to lacZ: 63.7
  Normalized Luc. act., normalized to control: 0.9
  Results of assays of transcription factor (+/- ligand) with hPPARg1: 0.92

B4: CTF1: COUP-TF1 (NR2F1), cDNA driver (protein, UniProt P10589 1-423, looked up)
COUP transcription factor 1: MAMVVSSWRDPQDDVAGGNPGGPNPAAQAARGGGGGAGEQQQQAGSGAPHTPQTPGQPGAPATPGTAGDKGQGPPGSGQSQQHIECVVCGDKSSGKHYGQFTCEGCKSFFKRSVRRNLTYTCRANRNCPIDQHHRNQCQYCRLKKCLKVGMRREAVQRGRMPPTQPNPGQYALTNGDPLNGHCYLSGYISLLLRAEPYPTSRYGSQCMQPNNIMGIENICELAARLLFSAVEWARNIPFFPDLQITDQVSLLRLTWSELFVLNAAQCSMPLHVAPLLAAAGLHASPMSADRVVAFMDHIRIFQEQVEKLKALHVDSAEYSCLKAIVLFTSDACGLSDAAHIESLQEKSQCALEEYVRSQYPNQPSRFGKLLLRLPSLRTVSSSVIEQLFFVRLVGKTPIETLIRDMLLSGSSFNWPYMSIQCS
[1]
  Luc. act., normalized to lacZ: 113.8
  Normalized Luc. act., normalized to control: 2.2
  Results of assays of transcription factor (+/- ligand) with mGhrelin: 2.18
[2]
  Luc. act., normalized to lacZ: 3.1
  Normalized Luc. act., normalized to control: 1.1
  Results of assays of transcription factor (+/- ligand) with mLeptin: 1.07
[3]
  Results of assays of transcription factor (+/- ligand) with mPOMC: 0.73
  Luc. act., normalized to lacZ: 50.0
  Normalized Luc. act., normalized to control: 0.7
[4]
  Normalized Luc. act., normalized to control: 0.9
  Luc. act., normalized to lacZ: 0.6
  mUCP3 promoter reporter activity: 0.93
[5]
  Normalized Luc. act., normalized to control: 0.9
  Luc. act., normalized to lacZ: 24.8
  hIRF7 promoter reporter activity: 0.94
[6]
  Luc. act., normalized to lacZ: 39.7
  Normalized Luc. act., normalized to control: 0.6
  Results of assays of transcription factor (+/- ligand) with hPPARg1: 0.58
